Source: patent publication US20170137467A1
Blank lines part the entries; values can stand above or below the binder they belong to.

How the values were obtained:
BC2T K4E (human) = molecular target: T1, BC2T K4E (human); assay: library pulldown, LC-MS of supernatant; ratio vs GFP-Nb control (0=captured, 1=not captured)
T1 sequence (peptide, N-terminal acetyl, C-terminal amide): PDREAAVSHWQQ

BC2T R3Q = molecular target: T2, BC2T R3Q; assay: positional peptide library pulldown on immobilised Nb, LC-MS of supernatant; signal ratio to control GFP-Nb (1 = not captured, near 0 = captured)
T2 sequence (peptide, N-terminal acetyl; C-terminal amide): PDQKAAVSHWQQ

BC2T R3S = molecular target: T3, BC2T R3S; assay: as above
T3 sequence (peptide, N-terminal acetyl; C-terminal amide): PDSKAAVSHWQQ

[1] = molecular target: mCherry tagged with the improved BC2T variations; assay: capture on the BC2 nanotrap, SDS-PAGE and Coomassie, FIG. 19a
BC2T S8D = molecular target: T4, BC2T S8D; assay: positional peptide library pulldown on immobilised Nb, LC-MS of supernatant; signal ratio to control GFP-Nb (1 = not captured, near 0 = captured)
T4 sequence (peptide, N-terminal acetyl; C-terminal amide): PDRKAAVDHWQQ

BC2T S8K = molecular target: T5, BC2T S8K; assay: as above
T5 sequence (peptide, N-terminal acetyl; C-terminal amide): PDRKAAVKHWQQ

BC2T Q11P = molecular target: T6, BC2T Q11P; assay: as above
T6 sequence (peptide, N-terminal acetyl; C-terminal amide): PDRKAAVSHWPQ

ratio (BC2T K4E (human)): 0.9
B1: BC2-NbR106S (VHH, not shown: small tags and cut ends)
VHH: QVQLVESGGGLVQPGGSLTLSCTASGFTLDHYDIGWFRQAPGKEREGVSCINNSDDDTYYADSVKGRFTIFMDNAKDTVYLQMNSLKPEDTAIYYCAEARGCKRGSYEYDFWGQGTQVTVSS

ratio (BC2T R3Q): 0.8
ratio (BC2T R3S): 0.8
B2: BC2-NbR106E (VHH)
VHH: QVQLVESGGGLVQPGGSLTLSCTASGFTLDHYDIGWFRQAPGKEREGVSCINNSDDDTYYADSVKGRFTIFMDNAKDTVYLQMNSLKPEDTAIYYCAEARGCKRGEYEYDFWGQGTQVTVSS

percent protein bound [1]: < 100%
ratio (BC2T S8D): 0.8
ratio (BC2T S8K): 0.8
ratio (BC2T Q11P): 0.6
B3: BC2 nanobody (VHH, not shown: small tags and cut ends)
VHH: QVQLVESGGGLVQPGGSLTLSCTASGFTLDHYDIGWFRQAPGKEREGVSCINNSDDDTYYADSVKGRFTIFMDNAKDTVYLQMNSLKPEDTAIYYCAEARGCKRGRYEYDFWGQGTQVTVSS
